Measured values: patent US20240369575A1 (Genentech, published 2024)
Like-named read-outs stand apart in the source and are kept apart here.

Key:
RIP3 [1] = experiment: IP from HT29 WT or RIP1 KO cells with or without TBZ; western blot RIP3
XIAP [2] = biological target: T1, XIAP (UniProt P98170 1-497); experiment: IP from THP1 cells with or without MDP (1 ug/ml, 30 min), 6 M urea lysis; western blot XIAP
Description: (§1) THP1 cells were treated with PBS or MDP (1 μg/ml, 30 min). Cells were lysed in 6M urea buffer and immunoprecipitated using indicated RIP2-ubiquitin, K63-linear ubiquitin chain bispecific or control antibodies.

c-IAP1 [3] = biological target: T2, c-IAP1 (UniProt Q13490 1-618); experiment: IP from THP1 cells with or without MDP (1 ug/ml, 30 min), 6 M urea lysis; western blot c-IAP1
Description: as §1

RIP1 = biological target: T3, RIP1; experiment: IP with K63-Lin from THP1 cells treated with PBS, TNF, MDP or LPS, 6 M urea lysis; western blot RIP1
T3 construct: also called non-ubiquitinated RIP1 (endogenous, human cell lines); RIPK1
T3 single chain: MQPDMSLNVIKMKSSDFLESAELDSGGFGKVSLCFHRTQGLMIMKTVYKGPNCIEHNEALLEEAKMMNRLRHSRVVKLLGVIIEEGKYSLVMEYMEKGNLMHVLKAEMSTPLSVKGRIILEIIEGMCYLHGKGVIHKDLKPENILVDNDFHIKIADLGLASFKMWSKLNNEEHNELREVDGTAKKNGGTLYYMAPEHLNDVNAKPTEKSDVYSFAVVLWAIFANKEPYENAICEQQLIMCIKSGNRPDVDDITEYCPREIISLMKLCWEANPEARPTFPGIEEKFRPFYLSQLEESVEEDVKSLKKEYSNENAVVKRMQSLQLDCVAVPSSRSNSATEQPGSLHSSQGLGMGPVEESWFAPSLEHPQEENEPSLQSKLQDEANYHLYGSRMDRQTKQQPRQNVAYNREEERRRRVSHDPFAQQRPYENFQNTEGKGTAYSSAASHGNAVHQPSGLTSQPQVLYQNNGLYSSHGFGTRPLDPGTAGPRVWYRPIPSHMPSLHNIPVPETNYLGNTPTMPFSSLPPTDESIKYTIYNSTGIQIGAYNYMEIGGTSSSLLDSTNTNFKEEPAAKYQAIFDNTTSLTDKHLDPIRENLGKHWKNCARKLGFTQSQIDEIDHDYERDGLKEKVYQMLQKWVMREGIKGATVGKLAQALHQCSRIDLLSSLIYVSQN

RIP2 = biological target: T4, RIP2 (Homo sapiens (Human), UniProt O43353 1-540); experiment: immunoprecipitation from cell lysates in 6 M urea buffer, western blot
T4 construct: also called RIPK2

TRAF2 = biological target: T5, TRAF2 (UniProt Q12933 2-501); experiment: as above
T5 sequence (looked up): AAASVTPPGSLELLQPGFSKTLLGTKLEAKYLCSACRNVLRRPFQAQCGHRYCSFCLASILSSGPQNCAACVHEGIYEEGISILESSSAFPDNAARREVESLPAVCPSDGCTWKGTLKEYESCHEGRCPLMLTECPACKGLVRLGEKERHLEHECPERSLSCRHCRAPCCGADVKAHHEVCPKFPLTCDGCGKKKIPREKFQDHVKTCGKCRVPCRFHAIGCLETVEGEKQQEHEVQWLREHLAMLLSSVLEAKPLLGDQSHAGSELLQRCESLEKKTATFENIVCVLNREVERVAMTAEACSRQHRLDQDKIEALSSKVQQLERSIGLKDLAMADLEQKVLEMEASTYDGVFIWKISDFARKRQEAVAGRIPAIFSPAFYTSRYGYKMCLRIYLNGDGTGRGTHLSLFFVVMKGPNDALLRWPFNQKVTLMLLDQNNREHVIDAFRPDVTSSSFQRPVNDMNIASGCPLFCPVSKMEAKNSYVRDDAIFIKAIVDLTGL

RIP3 [4] = experiment: IP from HT29 WT or RIP1 KO cells with or without TBZ; western blot RIP3; remark: listed apart in the source
[5] = biological target: T6, RIP2 modified by mixed and/or branched K63-linked and linear ubiquitin chains (UniProt P0CG48 1-76); experiment: IP from THP1 cells untreated or treated with MDP (1 ug/ml, 30 min), 6 M urea lysis; western blot RIP2
T6 construct: mature; also called modified RIP2; K63- and linear chain-ubiquitinated RIP2

c-IAP1 [6] = biological target: T2, c-IAP1; experiment: IP from THP1 cells with or without MDP (1 ug/ml, 30 min), 6 M urea lysis; western blot c-IAP1; remark: listed apart in the source
XIAP [7] = biological target: T1, XIAP; experiment: IP from THP1 cells with or without MDP (1 ug/ml, 30 min), 6 M urea lysis; western blot XIAP (label cut to XIA on the sheet)
XIAP [8] = biological target: T1, XIAP; experiment: immunoprecipitation from MDP-treated THP1 lysates in 6 M urea buffer, western blot
Description: as §1

c-IAP1 [9] = biological target: T2, c-IAP1; experiment: as above
Description: as §1

Measured: binding result

T2 sequence (Q13490 whole entry): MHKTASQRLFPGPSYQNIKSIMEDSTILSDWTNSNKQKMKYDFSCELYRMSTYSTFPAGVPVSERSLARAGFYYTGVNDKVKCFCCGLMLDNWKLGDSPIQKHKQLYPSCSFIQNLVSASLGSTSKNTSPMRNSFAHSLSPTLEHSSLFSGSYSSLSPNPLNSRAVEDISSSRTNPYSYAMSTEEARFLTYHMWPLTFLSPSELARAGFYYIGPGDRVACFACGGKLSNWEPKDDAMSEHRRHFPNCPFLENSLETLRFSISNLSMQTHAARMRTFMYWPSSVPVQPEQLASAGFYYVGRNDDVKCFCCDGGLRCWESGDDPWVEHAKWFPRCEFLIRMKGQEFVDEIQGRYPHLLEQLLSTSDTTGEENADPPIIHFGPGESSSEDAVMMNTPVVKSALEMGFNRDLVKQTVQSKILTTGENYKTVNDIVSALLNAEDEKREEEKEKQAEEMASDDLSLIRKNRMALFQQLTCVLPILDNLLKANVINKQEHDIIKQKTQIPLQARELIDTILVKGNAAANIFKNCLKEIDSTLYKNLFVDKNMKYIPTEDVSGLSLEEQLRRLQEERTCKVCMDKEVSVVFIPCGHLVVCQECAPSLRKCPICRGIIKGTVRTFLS
Chain of RIP3 (chain, as listed by the source limits assumed): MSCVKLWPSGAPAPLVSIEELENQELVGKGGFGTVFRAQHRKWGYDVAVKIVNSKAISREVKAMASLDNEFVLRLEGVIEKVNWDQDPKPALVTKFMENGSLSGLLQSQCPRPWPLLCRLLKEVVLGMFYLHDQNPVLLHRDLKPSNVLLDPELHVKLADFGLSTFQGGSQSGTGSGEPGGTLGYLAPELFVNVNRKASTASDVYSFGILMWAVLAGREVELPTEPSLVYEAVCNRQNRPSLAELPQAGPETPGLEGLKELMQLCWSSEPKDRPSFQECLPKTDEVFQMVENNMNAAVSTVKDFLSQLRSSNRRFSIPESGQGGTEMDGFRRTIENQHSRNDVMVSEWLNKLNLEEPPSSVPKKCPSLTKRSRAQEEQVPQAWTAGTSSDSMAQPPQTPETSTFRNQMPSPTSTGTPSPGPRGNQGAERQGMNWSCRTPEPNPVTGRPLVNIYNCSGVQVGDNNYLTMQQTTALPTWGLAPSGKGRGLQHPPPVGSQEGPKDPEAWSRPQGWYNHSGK
T1 sequence (P98170 whole entry): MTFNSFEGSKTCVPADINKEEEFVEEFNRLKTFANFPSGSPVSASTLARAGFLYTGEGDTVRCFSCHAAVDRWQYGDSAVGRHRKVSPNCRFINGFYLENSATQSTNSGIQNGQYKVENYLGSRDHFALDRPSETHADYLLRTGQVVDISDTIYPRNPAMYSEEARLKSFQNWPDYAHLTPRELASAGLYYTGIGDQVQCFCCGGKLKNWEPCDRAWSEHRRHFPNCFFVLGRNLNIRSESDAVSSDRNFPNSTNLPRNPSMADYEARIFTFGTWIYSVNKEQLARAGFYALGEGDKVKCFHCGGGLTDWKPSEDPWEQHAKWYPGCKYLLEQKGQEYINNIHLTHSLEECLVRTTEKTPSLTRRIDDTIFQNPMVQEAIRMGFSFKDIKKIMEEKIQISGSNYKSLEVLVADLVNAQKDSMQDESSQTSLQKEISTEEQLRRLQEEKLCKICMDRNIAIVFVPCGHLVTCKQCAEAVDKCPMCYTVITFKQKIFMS
T4 sequence (O43353 whole entry): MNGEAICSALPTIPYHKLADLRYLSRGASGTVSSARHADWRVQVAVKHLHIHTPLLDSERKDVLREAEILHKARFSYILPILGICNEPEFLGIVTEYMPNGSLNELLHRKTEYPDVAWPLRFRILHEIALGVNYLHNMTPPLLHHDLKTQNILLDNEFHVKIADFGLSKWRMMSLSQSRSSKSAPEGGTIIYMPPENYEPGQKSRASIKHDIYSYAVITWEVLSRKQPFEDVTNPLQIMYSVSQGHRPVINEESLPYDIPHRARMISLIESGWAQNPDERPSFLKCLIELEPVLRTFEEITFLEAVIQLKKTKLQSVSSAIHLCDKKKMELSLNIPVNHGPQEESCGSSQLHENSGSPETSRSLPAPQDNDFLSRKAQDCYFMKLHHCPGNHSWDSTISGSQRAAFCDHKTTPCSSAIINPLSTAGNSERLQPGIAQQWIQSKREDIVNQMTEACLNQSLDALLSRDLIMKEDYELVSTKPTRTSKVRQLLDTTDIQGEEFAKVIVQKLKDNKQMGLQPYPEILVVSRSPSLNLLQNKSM
T6 sequence (chain, as listed by the source limits assumed, chain 1 of 2, other chains not shown): as the sequence (O43353 whole entry) above

B1: anti-M1/anti-K63 bispecific antibody (bispecific antibody, V domains shown)
VH 1: EVQLVESGGGLVQPGGSLRLSCAASGFNVKTGLIHWVRQAPGKGLEWVAYITPYYGSTSYADSVKGRFTISADTSKNTAYLQMNSLRAEDTAVYYCAREYYRWYTAIDYWGQGTLVTVSS
VL 1: DIQMTQSPSSLSASVGDRVTITCRASQSVSSAVAWYQQKPGEAPKLLIYSARSLYSGVPSRFSGSRSGTDFTLTISSLQPEDFATYYCQQYSSYSSLFTFGQGTKVEIK
VH 2: EVQLVESGGGLVQPGGSLRLSCAASGFTFSNTYISWVRQAPGKGLEWVASITPSSGQTDYADSVKGRFTISADTSKNTAYLQMNSLRAEDTAVYYCARTWLLRWVMDLWGQGTLVTVSS
VL 2: DIQMTQSPSSLSASVGDRVTITCRASQDVSTAVAWYQQKPGKAPKLLIYSAKFLYSGVPSRFSGSGSGTDFTLTISSLQPEDFATYYCQQSYTTPPTFGQGTKVEIK
notes: also called K63-Lin; K63-linear ubiquitin chain bispecific antibody
no binding: RIP3 [1] | XIAP [2] | c-IAP1 [3] | RIP1

B2: anti-RIP1/anti-K63 bispecific antibody (bispecific antibody, human IgG1, kappa)
heavy 1: not shown
light 1: DIQMTQSPSSLSASVGDRVTITCRASQSVSSAVAWYQQKPGEAPKLLIYSARSLYSGVPSRFSGSRSGTDFTLTISSLQPEDFATYYCQQYSSYSSLFTFGQGTKVEIKRTVAAPSVFIFPPSDEQLKSGTASVVCLLNNFYPREAKVQWKVDNALQSGNSQESVTEQDSKDSTYSLSSTLTLSKADYEKHKVYACEVTHQGLSSPVTKSFNRGEC
heavy 2: not shown
light 2: NIMMTQSPSSLAVSAGQKVTMNCKSSQNVIYTSNQRNYLAWYQQKPGQSPKLLIYWASTRVSGVPDRFTGSGSGTDFTLTISSVEVEDLAVYYCHQYLSSWTFGGGTKVEIKRTVAAPSVFIFPPSDEQLKSGTASVVCLLNNFYPREAKVQWKVDNALQSGNSQESVTEQDSKDSTYSLSSTLTLSKADYEKHKVYACEVTHQGLSSPVTKSFNRGEC
notes: also called RIP1-K63; RIP1-K63 ubiquitin chain bispecific antibody
no binding: RIP2 | TRAF2 | RIP3 [4] | [5]

B3: anti-RIP1/anti-M1 bispecific antibody (bispecific antibody, human IgG1, kappa)
heavy 1: not shown
light 1: DIQMTQSPSSLSASVGDRVTITCRASQDVSTAVAWYQQKPGKAPKLLIYSAKFLYSGVPSRFSGSGSGTDFTLTISSLQPEDFATYYCQQSYTTPPTFGQGTKVEIKRTVAAPSVFIFPPSDEQLKSGTASVVCLLNNFYPREAKVQWKVDNALQSGNSQESVTEQDSKDSTYSLSSTLTLSKADYEKHKVYACEVTHQGLSSPVTKSFNRGEC
heavy 2: not shown
light 2: NIMMTQSPSSLAVSAGQKVTMNCKSSQNVIYTSNQRNYLAWYQQKPGQSPKLLIYWASTRVSGVPDRFTGSGSGTDFTLTISSVEVEDLAVYYCHQYLSSWTFGGGTKVEIKRTVAAPSVFIFPPSDEQLKSGTASVVCLLNNFYPREAKVQWKVDNALQSGNSQESVTEQDSKDSTYSLSSTLTLSKADYEKHKVYACEVTHQGLSSPVTKSFNRGEC
notes: also called RIP1-Lin; RIP1-Lin ubiquitin chain bispecific antibody
no binding: RIP2 | TRAF2 | RIP3 [1]

B4: anti-RIP2/anti-K63 bispecific antibody (bispecific antibody, human IgG1, kappa)
heavy 1: not shown
light 1: DIQMTQSPSSLSASVGDRVTITCRASQSVSSAVAWYQQKPGEAPKLLIYSARSLYSGVPSRFSGSRSGTDFTLTISSLQPEDFATYYCQQYSSYSSLFTFGQGTKVEIKRTVAAPSVFIFPPSDEQLKSGTASVVCLLNNFYPREAKVQWKVDNALQSGNSQESVTEQDSKDSTYSLSSTLTLSKADYEKHKVYACEVTHQGLSSPVTKSFNRGEC
heavy 2: not shown
light 2: not shown
notes: also called RIP2-K63
no binding: c-IAP1 [6] | XIAP [7]

B5: anti-RIP2/anti-M1 bispecific antibody (bispecific antibody, human IgG1, kappa)
heavy 1: not shown
light 1: DIQMTQSPSSLSASVGDRVTITCRASQDVSTAVAWYQQKPGKAPKLLIYSAKFLYSGVPSRFSGSGSGTDFTLTISSLQPEDFATYYCQQSYTTPPTFGQGTKVEIKRTVAAPSVFIFPPSDEQLKSGTASVVCLLNNFYPREAKVQWKVDNALQSGNSQESVTEQDSKDSTYSLSSTLTLSKADYEKHKVYACEVTHQGLSSPVTKSFNRGEC
heavy 2: not shown
light 2: not shown
notes: also called RIP2-Lin
no binding: XIAP [8] | c-IAP1 [9]
